Measurements from publication PMC10294844, “Functional Diversity of Homologous Oxidoreductases—Tuning of Substrate Specificity by a FAD-Stacking Residue for Iron Acquisition and Flavodoxin Reduction” (Antioxidants, 2023).

Target: the molecule itself
Experiment: crystal structure

B1: Bacillus cereus heme-degrading monooxygenase IsdG (enzyme)
chain: MIIVTNTAKITKGNGHKLIERFNKVGKVETMPGFLGLEVLLTQNTVDYDEVTISTRWNAKEDFQGWTKSAAFKDAHSHQGGMPEYILDNKIAYYDVKVVRMPMAAAQ
notes: also called Bc IsdG; IsdGapo
binding result: binds
